Source: US20220378923A1, “BET DEGRADER” (KYOWA KIRIN CO., LTD., priority 2019, published 2022)

Legend:
[1] = biological target: DCAF16 with HaloTag added to the C-terminal (expressed from plasmid pFC27K_DCAF16) (human) (UniProt Q9NXF7); assay: NanoBRET in HEK293 cells, Nluc-BRD2 and DCAF16-HaloTag with 618 Ligand, bortezomib; 10 umol/L compound 1h; mean of n=3
[2] = biological target: DCAF16 with HaloTag added to the C-terminal (expressed from plasmid pFC27K_DCAF16) (human) (UniProt Q9NXF7); assay: NanoBRET in HEK293 cells, Nluc-BRD2 and DCAF16-HaloTag with 618 Ligand, MLN4924; DMSO control without test compound
[3] = biological target: DCAF16 with HaloTag added to the C-terminal (expressed from plasmid pFC27K_DCAF16) (human) (UniProt Q9NXF7); assay: NanoBRET in HEK293 cells, Nluc-BRD2 and DCAF16-HaloTag with 618 Ligand, MLN4924; 1.0 umol/L compound 3a
[4] = biological target: DCAF16 with HaloTag added to the C-terminal (expressed from plasmid pFC27K_DCAF16) (human) (UniProt Q9NXF7); assay: NanoBRET in HEK293 cells, Nluc-BRD2 and DCAF16-HaloTag with 618 Ligand, MLN4924; 1.0 umol/L compound 8j
[5] = biological target: DCAF16 with HaloTag added to the C-terminal (expressed from plasmid pFC27K_DCAF16) (human) (UniProt Q9NXF7); assay: NanoBRET in HEK293 cells, Nluc-BRD2 and DCAF16-HaloTag with 618 Ligand, MLN4924; 1.0 umol/L comparative compound 1 (compound P3, known bivalent BET inhibitor)
[6] = biological target: DCAF16 with HaloTag added to the C-terminal (expressed from plasmid pFC27K_DCAF16) (human) (UniProt Q9NXF7); assay: NanoBRET in HEK293 cells, Nluc-BRD2 and DCAF16-HaloTag with 618 Ligand, MLN4924; 1.0 umol/L compound 1l
[7] = biological target: DCAF16 with HaloTag added to the C-terminal (expressed from plasmid pFC27K_DCAF16) (human) (UniProt Q9NXF7); assay: NanoBRET in HEK293 cells, Nluc-BRD2 and DCAF16-HaloTag with 618 Ligand, MLN4924; 1.0 umol/L compound 15a
[8] = biological target: DCAF16 with HaloTag added to the C-terminal (expressed from plasmid pFC27K_DCAF16) (human) (UniProt Q9NXF7); assay: NanoBRET in HEK293 cells, Nluc-BRD2 and DCAF16-HaloTag with 618 Ligand, bortezomib; 10 umol/L compound 15a; mean of n=3
[9] = biological target: DCAF16 with HaloTag added to the C-terminal (expressed from plasmid pFC27K_DCAF16) (human) (UniProt Q9NXF7); assay: NanoBRET in HEK293 cells, Nluc-BRD2 and DCAF16-HaloTag with 618 Ligand, bortezomib; 10 umol/L compound 8j; mean of n=3
[10] = biological target: DCAF16 with HaloTag added to the C-terminal (expressed from plasmid pFC27K_DCAF16) (human) (UniProt Q9NXF7); assay: NanoBRET in HEK293 cells, Nluc-BRD2 and DCAF16-HaloTag with 618 Ligand, MLN4924; 1.0 umol/L compound 7p
[11] = biological target: DCAF16 with HaloTag added to the C-terminal (expressed from plasmid pFC27K_DCAF16) (human) (UniProt Q9NXF7); assay: NanoBRET in HEK293 cells, Nluc-BRD2 and DCAF16-HaloTag with 618 Ligand, bortezomib; 10 umol/L compound 7o; mean of n=3
[12] = biological target: DCAF16 with HaloTag added to the C-terminal (expressed from plasmid pFC27K_DCAF16) (human) (UniProt Q9NXF7); assay: NanoBRET in HEK293 cells, Nluc-BRD2 and DCAF16-HaloTag with 618 Ligand, MLN4924; 1.0 umol/L compound 3b
[13] = biological target: DCAF16 with HaloTag added to the C-terminal (expressed from plasmid pFC27K_DCAF16) (human) (UniProt Q9NXF7); assay: NanoBRET in HEK293 cells, Nluc-BRD2 and DCAF16-HaloTag with 618 Ligand, bortezomib; DMSO control without test compound; mean of n=3
[14] = biological target: DCAF16 with HaloTag added to the C-terminal (expressed from plasmid pFC27K_DCAF16) (human) (UniProt Q9NXF7); assay: NanoBRET in HEK293 cells, Nluc-BRD2 and DCAF16-HaloTag with 618 Ligand, MLN4924; 1.0 umol/L compound 7o
[15] = biological target: DCAF16 with HaloTag added to the C-terminal (expressed from plasmid pFC27K_DCAF16) (human) (UniProt Q9NXF7); assay: NanoBRET in HEK293 cells, Nluc-BRD2 and DCAF16-HaloTag with 618 Ligand, bortezomib; 10 umol/L compound 6k; mean of n=3
[16] = biological target: DCAF16 with HaloTag added to the C-terminal (expressed from plasmid pFC27K_DCAF16) (human) (UniProt Q9NXF7); assay: NanoBRET in HEK293 cells, Nluc-BRD2 and DCAF16-HaloTag with 618 Ligand, MLN4924; 1.0 umol/L compound 3e
[17] = biological target: DCAF16 with HaloTag added to the C-terminal (expressed from plasmid pFC27K_DCAF16) (human) (UniProt Q9NXF7); assay: NanoBRET in HEK293 cells, Nluc-BRD2 and DCAF16-HaloTag with 618 Ligand, MLN4924; 1.0 umol/L compound 8a
[18] = biological target: DCAF16 with HaloTag added to the C-terminal (expressed from plasmid pFC27K_DCAF16) (human) (UniProt Q9NXF7); assay: NanoBRET in HEK293 cells, Nluc-BRD2 and DCAF16-HaloTag with 618 Ligand, bortezomib; 10 umol/L compound 3a; mean of n=3
[19] = biological target: DCAF16 with HaloTag added to the C-terminal (expressed from plasmid pFC27K_DCAF16) (human) (UniProt Q9NXF7); assay: NanoBRET in HEK293 cells, Nluc-BRD2 and DCAF16-HaloTag with 618 Ligand, MLN4924; 1.0 umol/L compound 15f
[20] = biological target: DCAF16 with HaloTag added to the C-terminal (expressed from plasmid pFC27K_DCAF16) (human) (UniProt Q9NXF7); assay: NanoBRET in HEK293 cells, Nluc-BRD2 and DCAF16-HaloTag with 618 Ligand, bortezomib; 10 umol/L compound 8a; mean of n=3
[21] = biological target: DCAF16 with HaloTag added to the C-terminal (expressed from plasmid pFC27K_DCAF16) (human) (UniProt Q9NXF7); assay: NanoBRET in HEK293 cells, Nluc-BRD2 and DCAF16-HaloTag with 618 Ligand, bortezomib; 10 umol/L compound 7p; mean of n=3
[22] = biological target: DCAF16 with HaloTag added to the C-terminal (expressed from plasmid pFC27K_DCAF16) (human) (UniProt Q9NXF7); assay: NanoBRET in HEK293 cells, Nluc-BRD2 and DCAF16-HaloTag with 618 Ligand, bortezomib; 10 umol/L compound 3e; mean of n=3
[23] = biological target: DCAF16 with HaloTag added to the C-terminal (expressed from plasmid pFC27K_DCAF16) (human) (UniProt Q9NXF7); assay: NanoBRET in HEK293 cells, Nluc-BRD2 and DCAF16-HaloTag with 618 Ligand, bortezomib; 10 umol/L compound 3b; mean of n=3
[24] = biological target: DCAF16 with HaloTag added to the C-terminal (expressed from plasmid pFC27K_DCAF16) (human) (UniProt Q9NXF7); assay: NanoBRET in HEK293 cells, Nluc-BRD2 and DCAF16-HaloTag with 618 Ligand, bortezomib; 10 umol/L compound 12c; mean of n=3
[25] = biological target: DCAF16 with HaloTag added to the C-terminal (expressed from plasmid pFC27K_DCAF16) (human) (UniProt Q9NXF7); assay: NanoBRET in HEK293 cells, Nluc-BRD2 and DCAF16-HaloTag with 618 Ligand, MLN4924; 1.0 umol/L compound 1h
[26] = biological target: DCAF16 with HaloTag added to the C-terminal (expressed from plasmid pFC27K_DCAF16) (human) (UniProt Q9NXF7); assay: NanoBRET in HEK293 cells, Nluc-BRD2 and DCAF16-HaloTag with 618 Ligand, MLN4924; 1.0 umol/L compound 6k
[27] = biological target: DCAF16 with HaloTag added to the C-terminal (expressed from plasmid pFC27K_DCAF16) (human) (UniProt Q9NXF7); assay: NanoBRET in HEK293 cells, Nluc-BRD2 and DCAF16-HaloTag with 618 Ligand, bortezomib; 10 umol/L compound 15f; mean of n=3
[28] = biological target: DCAF16 with HaloTag added to the C-terminal (expressed from plasmid pFC27K_DCAF16) (human) (UniProt Q9NXF7); assay: NanoBRET in HEK293 cells, Nluc-BRD2 and DCAF16-HaloTag with 618 Ligand, bortezomib; 10 umol/L compound 1l; mean of n=3
[29] = biological target: DCAF16 with HaloTag added to the C-terminal (expressed from plasmid pFC27K_DCAF16) (human) (UniProt Q9NXF7); assay: NanoBRET in HEK293 cells, Nluc-BRD2 and DCAF16-HaloTag with 618 Ligand, MLN4924; 1.0 umol/L compound 12c

Sequence of DCAF16 with HaloTag added to the C-terminal (expressed from plasmid pFC27K_DCAF16) (human) (Q9NXF7 whole entry): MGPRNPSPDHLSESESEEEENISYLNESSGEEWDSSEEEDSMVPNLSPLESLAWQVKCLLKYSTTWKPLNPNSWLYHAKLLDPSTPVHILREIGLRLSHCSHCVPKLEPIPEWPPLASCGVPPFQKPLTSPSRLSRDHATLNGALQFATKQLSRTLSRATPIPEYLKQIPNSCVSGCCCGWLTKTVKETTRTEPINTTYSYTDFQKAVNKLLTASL

BRD2 with an Nluc tag added to the N-terminal (expressed from plasmid pFN31A_BRD2) (from UniProt P25440 1-801)
BRET Ratio [1]: 6.84 | BRET Ratio [2]: 0.99 | BRET Ratio [3]: 14.5 | BRET Ratio [4]: 11.9 | BRET Ratio [5]: 1.93 | BRET Ratio [6]: 14.9 | BRET Ratio [7]: 9.59 | BRET Ratio [8]: 5.88 | BRET Ratio [9]: 7.07 | BRET Ratio [10]: 11.6 | BRET Ratio [11]: 6.69 | BRET Ratio [12]: 9.69 | BRET Ratio [13]: 1.51 | BRET Ratio [14]: 13 | BRET Ratio [15]: 7.07 | BRET Ratio [16]: 9.58 | BRET Ratio [17]: 12.4 | BRET Ratio [18]: 8.51 | BRET Ratio [19]: 12.4 | BRET Ratio [20]: 7.27 | BRET Ratio [21]: 6.8 | BRET Ratio [22]: 5.96 | BRET Ratio [23]: 6.06 | BRET Ratio [24]: 7.6 | BRET Ratio [25]: 10.9 | BRET Ratio [26]: 12.6 | BRET Ratio [27]: 5.99 | BRET Ratio [28]: 8.03 | BRET Ratio [29]: 13.2
